Data taken from article PMC4600727 (2015).
Substitutions are numbered along the chain they refer to. In names and notes the source's numbering stands.

B1: Trx-Mira514–595 (domain or fragment)
chain: NYQLTLTNTRATVNILMERLKKSDADVEQYRAELESVQLAKGALEQSYLVLQADAEQLRQQLTESQDALNALRSSSQTLQSE
B2: Mira514–595 R532A (domain or fragment)
chain: B1 chain with R19A

Assays:
Stau dsRBD5 Y971K = biological target: T1, Stau dsRBD5 Y971K (Drosophila, UniProt P25159 951-1018); assay: ITC
T1 chain: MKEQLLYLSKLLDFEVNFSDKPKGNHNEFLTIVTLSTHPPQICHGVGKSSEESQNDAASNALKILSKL

Trx-Stau951-1,018 [1] = biological target: T2, Trx-Stau951-1,018 (Drosophila, UniProt P25159 951-1018); assay: ITC; Mira fragments injected into Stau fragments; 25 °C; 50 mM Tris pH 8.0, 100 mM NaCl, 1 mM EDTA
T2 chain: T1 chain with K21Y

Trx-Stau951-1,018 [2] = biological target: T2, Trx-Stau951-1,018; assay: ITC

Row | Binder | Kd (Stau dsRBD5 Y971K) | Kd (Trx-Stau951-1,018 [1]) | Kd (Trx-Stau951-1,018 [2])
1 | B1 | 8.7 µM | 1.07 µM | 
2 | B2 |  |  | 72.5 µM
